Source: paper PMC11217727

Tests used:
[1] = molecular target: FGFR3 S249C stably expressed in BaF3 cells (human) (UniProt P22607); test: nonreducing SDS-PAGE with Western blot
[2] = molecular target: FGFR3 S249C stably expressed in FaDu head and neck cancer cells (human) (UniProt P22607); test: nonreducing SDS-PAGE with Western blot

percent of FGFR3 present as dimer [1] [%]	percent of FGFR3 present as dimer [2] [%]	Substance
6	–	FGFR3 S249C stably expressed in BaF3 cells (from UniProt P22607 23-806) (receptor)
–	70	FGFR3 S249C stably expressed in FaDu head and neck cancer cells (from UniProt P22607 23-806) (receptor)
